Assay: soluble on expression in E. coli; label from the status in PepcDB or PDB records

Row | Sequence | soluble on expression in E. coli
1 | MILKTTLELVIDVKNNEKKIRTHSWKTKKIPPKKGEVSGQKLMVEKKSSKIFIENLKCQGNSAKNIFVFHLDLLHIKKLKNLNISMSSTDPILDISFDKPVYYPGDNMKLTVSVDTKRPLNARSVMFRCRGFRNRTVSFLNKYGIAWICKDGKNELPVGRLEQKFQFELGKDCPPTYKDGKIIYKVRLEIDQPWSRPLFIEKEFKMVHKLADQKMSQVMTYTSSPRFDALFSNGQPTFKVTMPKFTLYPGETTEFKLEVENHSSSTVKKIYAELEAEPFPLYHIYGNTKAKGKMHVLVAPYSTQKFTIPFTIPTDLTASFHTCGSSLKYTMKFGLVTDSWLTTDPALALVVSIGELESEEKKDEALKTPPPPPYTA | not soluble
2 | GPGSMDDLVAVRIKDGIFAGNAGAAADKTLLIMNKITHIINCAGAEVADFFLGEPGFSYLSFPWKDAAGSVCTTILFDAGDDNIHRVVQFIDEALAAGECVLVHSVYGNSRSPALIAAYMIMKYGWKLESALLYLKMAHPDSDIKPHFQRQLRQFAKRHEVDHDIFAQDVDDSQFGLDNDQWMLRNTLLNGLLYKDQMANDLYRQCAEKVDVGNPVNGKAKKAHITFVDTKKGTDA | not soluble
3 | MLPFLPEPSLSYTQQNRTAVLLLNLGTPDAPTAQAVRPYLKSFLTDRRIVELPKWLWYPILHGLVLTFRPKKSAHAYEKIWFKEGSPLEVYTARQAAALAERMPDLIVRHAMTYGNPSIADVLAELKSQGVGRLLAIPLYPQYAASSSGAAVDKVCEQLLLQRNQMSVRTISRFYDDAGYIDAMKNHILRYWAEHGRGKKLMLSFHGVPQKHYDLGDPYPDECRHTAKLLAEALELTEDEYTVSFQSQFGRAKWVTPSTQDLFGKLPKQGVTELDVFCPGFLADCLETMEEIALMGREQFYEAGGKNYRYIPCLNDNPDWIDALVALAEENLGGWR | not soluble
4 | EGLPVLAPVTKDTATSLYTIPFHDGASLVLDVAGLLVWSTCEGGQSPAEIACSSPTCLLANAYPAPGCPAPSCGSDRHDKPCTAYPSNPVTGACAAGSLFHTRFAANTTDGNKPVSEVNVRVLAACAPSKLLASLPRGSTGVAGLAGSGLALPSQVASAQKVPNKFLLCLPTGGPGVAIFGGGPLPWPQFTQSMDYTPLVAKGGSPAHYISARSIKVENTRVPISERALATGGVMLSTRLPYVLLRRDVYRPLVDAFTKALAAQPANGAPVARAVKPVAPFELCYDTKTLGNNPGGYWVPNVLLELDGGSDWAMTGKNSMVDVKPGTACVAFVEMKGVDAGDGSAPAVILGGAQMEDFVLDFDMEKKRLGFLRLPHFTGCSSFNFARST | soluble
5 | MGSDKIHHHHHHMSVKILFKNATVFPITSRPFKGDVLVSNGKVEKVGENIEDPDAEIVDLTGKFLFPGFVDAHSHIGLFEEGVGYYYSDGNEATDPVTPHVKALDGFNPQDPAIERALAGGVTSVMIVPGSANPVGGQGSVIKFRSIIVEECIVKDPAGLKMAFGENPKRVYGERKQTPSTRMGTAGVIRDYFTKVKNYMKKKELAQKEGKEFTETDLKMEVGEMVLRKKIPARMHAHRADDILTAIRIAEEFGFNLVIEHGTEAYKISKVLAEKKIPVVVGPLLTFRTKLELKDLTMETIAKLLKDGVLIALMCDHPVIPLEFATVQAATAMRYGAKEEDLLKILTVNPAKILGLEDRIGSIEPGKDADLVVWSGHPFDMKSVVERVYIDGVEVFRR | not soluble
6 | MGSSHHHHHHSSGLVPRGSHMESAIGEHLQCPRTLTRRVPDTYTPPFPMWVGRADDALQQVVMGYLGVQFRDEDQRPAALQAMRDIVAGFDLPDGPAHHDLTHHIDNQGYENLIVVGYWKDVSSQHRWSTSTPIASWWESEDRLSDGLGFFREIVAPRAEQFETLYAFQEDLPGVGAVMDGISGEINEHGYWGSMRERFPISQTDWMQASGELRVIAGDPAVGGRVVVRGHDNIALIRSGQDWADAEADERSLYLDEILPTLQSGMDFLRDNGPAVGCYSNRFVRNIDIDGNFLDLSYNIGHWASLDQLERWSESHPTHLRIFTTFFRVAAGLSKLRLYHEVSVFDAADQLYEYINCHPGTGMLRDAVTIAEH | soluble
7 | MGSDKIHHHHHHADSPDAFVPPTRLTRIAFDRRSAAFGQLDFLLGEIGRRMQERMEVVRLTPQRALDIGCGHGQGLAGLRARFPDAQIAGLDISGVMLAEAGQRDPQRRPGWVGRLLGKRPLFDLVQGDLATLPFAPGSFDLLWSNLALHWHPEPHRVFPEWHRVTRDDGLVMFSLFGPDTLRELRTAFEEVDTATHTLRFVDMHDIGDMLVHGGWSTPVMDMETLTVTYESPEMLLREVQAFGGLRAHPALRRAGLHGRRWHQAVCAALERLRNADGVIPLTFEIVYGHAWKLPPRGAQQVDELGRAVVPLDKIGRARPRR | not soluble
8 | MAFESSKSYYSIGEVSRISGIPAYLLRYWEDYFSELAPARDTRGNRRYTNRDIAMVLNIKDLVYEKGYKLNKASQMVKGGKVDHDGADHKTNEILKLQKQLLREQKEYEITGERRRMLLLEIKDEIEDILELLG | not soluble
9 | MGSDKIHHHHHHMNSINKNQPEKNHEDLKNKDSIDKIIELASDQTCFLCTTQGAKGNARPMAVQKVDKQGNIWFLSASDSNQNKEIQENSSVNLYFKGNQHSDFMHLYGEATVLRDETIIKELWNPVLKTWFTEGENDPRITIIKFTTKEGYYWDTKHGNFIAGIKMLIGAATGQTLDDSIEGSLQNQPVHNTHISHG | not soluble
10 | MSLETDDQYYRAIKKIKEAAEASNRAYLTSSKLADMLGISQQSASRIIIDLEKNGYITRTVTKRGQILNITEKGLDVLYTEFADLSRILAIKNNVVITGTVTSGMGEGRYYVARKQYIIQFQEKLGIIPYLGTLNIKVDQASLPELRKIRGFRGIHIEGFKTEDRTFGSVKAFPAKIQNIPCFVIMPERTVYTDVIEIISDKYLREEINLHDGDRVSVEVYTEGHHHHHH | soluble
11 | MSLRIVFKIGSNLLETDEGDIDLSFLSKLAEGIKKLHSFGDKVLIVSSGAVLSGAKKLGIKEKPKDLTLKQALASVGQSYLMHLYDTIFSNYGLKVGQVLLTKDVFSKEKEERFKNAKSTLEKLLELGVVPVINENDAVAVEELVFGDNDFLAVYVSFMVNADLLVIFSSAGGLKDDKDRIIPVVEDIEKVFKYVRGTGTSFGTGGMRSKLEATRLATTLNIPVIITSKEENILDLRNLKTKGTLFKPSKRKLRNALKVIATLEEPKGIIVVDRGAQEALKAGKSLLPAGVVSVQGNFKRGDVVSIQNEEGLIIGKGKVNFSSEEIEKIKGLKTSEVRKLLNTTKDEVIHRDNMVIFLEGHHHHHH | not soluble
12 | SPTNLANGLSSLLKPLKFFHLPIDEISLMLALSLRFVPTLMDETGKIMNAQRARGVDFGEGNIFQQMRSLVPIFIPQFIASFNRADELATAMESRGYRGAAKRTKFNRLKFK | not soluble
13 | MGRAELLEGKMSTQDPSDLWSRSDGEAELLQDLGWYHGNLTRHAAEALLLSNGCDGSYLLRDSNETTGLYSLSVRAKDSVKHFHVEYTGYSFKFGFNEFSSLKDFVKHFANQPLIGSETGTLMVLKHPYPRKVEEPSIYESVRVHTAMQTGRTEDDLVPTAPSLGTKEGYLTKQGGLVKTWKTRWFTLHRNELKYFKDQMSPEPIRILDLTECSAVQFDYSQERVNCFCLVFPFRTFYLCAKTGVEADEWIKILRWKLSQIRKQLNQGEGTIRSRSFIFK | soluble
14 | SKSFNYSVSFNLSDYQGTVLKYSNPKGLIYDYYVGKKMGTIWGYTTDHIMTDPAEAKAINDSGVQNKFGGDWVVGDIKYVNLDDDPNINDGNQTLEDHGDLSIIGNDTPRYNFGFGFNADWNGIDFSMFLQGTMKRDLWLEGPVAFGLGGGQWGSNVWKNTLDCWREDGSNPDPWLPRLYLWSTSKNLQKQTRYMDTGAYCRLKNIQLGYSLPGAIINKVGLEKVRIYFSGDNLLTFSGINENFDPEAPWGGAYPISKSISFGVNVTF | not soluble
15 | MGHHHHHHSHMTDFEDKQVANNETMEDAMNSVQEVSVGDIVKGEVLAIEDKQVVVGIEGAGVEGVVPAKELSTLPVEDVHELVKVGDVLDLVVITSIGKDKENGSYLLSKRRLDAKKVWEEIEQDFQAGKVIEAPVTNVVKGGLVVDVGVRGFVPASMVEDHFVADFSEYKGQTLAFKIIEIEPSENRLILSHKAVVEAEKESKKEELLSSLHDGDVVEGKVARLTDFGAFIDLGGVDGLVHVSEIAHQHVGKPSDALTVGEDVQVKILSINPEEGRISLSIKETLPGPWTDIETKAAAGTVLDGTVKRLTSFGAFVEVFPGVEGLVHISQISHKHIATPHEVLHEGDQVQVKVLEVNPEEHRIALSIKALEPKPESQEEPKEEQEYELPEENTGFTMGDILGDALSDAKEEE | soluble
16 | MGSDKIHHHHHHSRSGEKAAQQLVDYFIYQEKPETFSQTFREPKVLAEHLQTSRQQFQKQFFNSLKEMNAEVTETEAQKLSAELLAQVKKKASYQLVATKELNGQATITFQIKGLDFVTAIEDTTTALLQQTQQATQALDMQHTLAVLKKEIQQINVSHEPVELPLTVKQVEGQWYLPAVEQLRLNQFFLAFVTGKEDTDQLTEALDTILTQAEQKVVTADERTAIAGN | not soluble
17 | MLLKSIHHIAIICSDYEKSKAFYVHKLGFQVIQETYREERGSYKLDLSLNGSYVIELFSFPDPPERQTRPEAAGLRHLAFTVGSLDKAVQELHEKGIETEPIRTDPLTGKRFTFFFDPDQLPLELYEQ | not soluble
18 | MFDPKQFDELANKLFATLPTSLQNFEKDIQQKFKEVLQSTFSRMDLVTREEFDVQCKVLARTREKLEQLQHQLEDFIKRQEVKNNK | not soluble
19 | NDPEWFAIVKWTLFAMLNAEEAKITSKNVEAEAKATKNPDVARMLGADGTYGKDLNLPKDWVVQIVKQVGNYGEVFERNLGEGTPLKIKRGQNALWNAGGIQYAPPIR | not soluble
20 | MGSDKIHHHHHHVQESREFILEIAQLNKTYSGNRVLNNINFDLKLGEVHALVGENGAGKSTLIKIIAGVEKPDPGAEILFGGCPAINLNPSKSVQMGISVIYQDISLFPNLSVAENICIGGQKGLFIKWKQVFETARSALIKLGAIDIDPHVPLGEISIGQRQMVALARALTHEARVIIMDEPTSSLSANEIKALYSAIQILKNENKSLIYISHKFEEVFEVADRISVLRDGEMIASKAAWEFDEQSLISMMVGREIRFLPMRNDGVAGKKLLEVRGLTKEPLFRNISFSLYENEILGITGLVGAGRSEMAQTLFGLEKADKGRIFMGEKELSIKSAVDAIKSGICYLPEDRRGQGIFLIQSMARNITTAKLESILNRCRLLSRPKEMAVSEYYMDRLNIKPRLPDISADKMSGGNQQKLLFSRWLNARPQILIADEPSSGIDVATKAEIHGLLRELAASGVGVILISSDLPETLAVCDRILVMRNGNIVDQTSSKESSQEELIRKGLMG | not soluble
21 | MGSDKIHHHHHHMPGKAKGRSLTAAQFNLRSDRLIAGKALRNVLPRTEQASWQPAQDRRDPIAILEDSNQGRVPELIPIRYGRMLRSPFTFLRGSAAIMAYDLATTPNTGIHVQACGDCHLLNFGLFATPERNLVFDINDFDETHPAPWEWDLKRLAVSFVIAARNNQVVDQEAESIAVSCTRSYREHLRNYSRMSPLEVWYARLEMKEIIEMAPTEKIRKRREEFAERAQKRIAEHLFPKIVTLKEGKHQFVDQPPILFHSNDPTLRNRVINGLQAYRKSLPDERRVLFDRYRLEDYATKVVGIGSVGTHCSIALFFSEENHPLILQVKEARQSVLEPYTQTNCYENQGQRVVVGQRLMQSSSDIFLGWARSDLGRDFYVRQLRDMKFSLPIDGMQAERFHRYAEFCGWALARAHAKAGDAATISGYLGKADAFDEAIAKFAVAYADQTEQDYTALVQAVASGRIEAIVEEDL | not soluble
22 | MHKLIIKYNKQLKMLNLRDGKTYTISEDERADITLKSLGEVIHLEQNNQGTWQANHTSINKVLVRKGDLDDITLQLYTEADYASFAYPSIQDTMTIGPNAYDDMVIQSLMNAIIIKDFQSIQESQYVRIVHDKNTDVYINYELQEQLTNKAYIGDHIYVEGIWLEVQADGLNVLSQNTVASSLIRLTQEMPHAQADDYNTYHRSPRIIHREPTDDIKIERPPQPIQKNNTLEHHHHHH | soluble
